Assay results from patent US20130066046A1.

Key:
[1] = target: human serum albumin (human) (UniProt P02768); assay: SPR (Biacore), HSA immobilised on CM5 chip, 40 nM, mean+/-SD, N=4
[2] = target: human serum albumin (human) (UniProt P02768); assay: annotation in the curve's label on the competitive ELISA plot; the sheet does not say how this Kd was obtained (text paragraph 46 speaks of a reported Kd ~1x10^-9 M)
[3] = target: human serum albumin (human) (UniProt P02768); assay: competitive ELISA: soluble binding protein competes with plate-immobilised single maximum moiety for biotinylated human serum albumin, streptavidin-peroxidase readout
[4] = target: human serum albumin (human) (UniProt P02768); assay: SPR (Biacore), HSA immobilised on CM5 chip
[5] = target: human serum albumin (human) (UniProt P02768); assay: competitive ELISA, soluble construct against immobilised binding protein for biotinylated HSA (Illustration 1.2)
[6] = target: human serum albumin (human) (UniProt P02768); assay: competitive ELISA, slope around the 50% inhibition point (Illustration 1.2)
[7] = target: human serum albumin (human) (UniProt P02768); assay: flow cytometry on beads, ratio against the single maximum moiety (Illustration 1.5)
[8] = target: human serum albumin (human) (UniProt P02768); assay: flow cytometry, binding protein immobilised on beads, fluorescein labeled albumin (Illustration 1.5)
[9] = target: human serum albumin (human) (UniProt P02768); assay: SPR (Biacore), HSA immobilised on CM5 chip, limited number of replicates
[10] = target: human serum albumin (human) (UniProt P02768); assay: competitive ELISA, ratio against construct 1 (Illustration 1.2)
IgG (biotinylated) [11] = assay: competitive ELISA, slope around the 50% inhibition point (Illustration 2.1)
[12] = target: human IgG (from human serum; human immunoglobin G standard); assay: extraction from diluted human serum with coated silica beads, gel/blot comparison with standards (Illustration 2.2)
IgG (biotinylated) [13] = assay: competitive ELISA, soluble protein against immobilised two-moiety cassette for biotinylated IgG (Illustration 2.1)
IgG (biotinylated) [14] = assay: competitive ELISA, ratio against one maximum domain (Illustration 2.1)

## native material analogous to that of Sjöbring et al. (1991), streptococcal protein G
[1]
  Kd: 0.7 nM
  kon: 123000 M⁻¹ s⁻¹
[2]
  Kd: 10 nM
[3]
  IC50 (read off the curve) (pmoles per well): 10

B1: Construct "2" (functional cassette with two maximum moieties for human serum albumin) (designed binder, part only; not given: spacer and terminal segment, not shown: small tags and cut ends)
chain, part: AAALDQAKQAALKEFDRYGVSNYYKNLINKAKTVEGIMELQAQVVESAKKARISEATDGLSDFLKSQTSAEDTLKSIKLSEAKEMAIRELDAQGVSDFYKNKINNAKTVEGVVALKDLILNSLAAALDQAKQAALKEFDRYGVSNYYKNLINKAKTVEGIMELQAQVVESAKKARISEATDGLSDFLKSQTSAEDTLKSIKLSEAKEMAIRELDAQGVSDFYKNKINNAKTVEGVVALKDLILNSL
[4]
  half-life: 7410 days
[5]
  IC50: 15 nM
[6]
  rate of change: 8.5
[7]
  F (ratio of apparent Kd, two maximum moieties / one maximum moiety): 0.67
[8]
  Kd: 160 nM
[9]
  Kd: < 0.01 nM
  koff: < 1e-05 s⁻¹
  kon: 300000 M⁻¹ s⁻¹
[10]
  R (ratio of 50% inhibition point, two maximum moieties / one maximum moiety): 0.4
  S (ratio of rate of change, two maximum moieties / one maximum moiety): 1.7

B2: functional cassette with two maximum moieties (six minimum moieties) for IgG (designed binder)
chain: LGIDPFTALPKTDTYKLILNGKTLKGETTTEAVDAATAEKVFKQYANDNGVDGEWTYDDATKTFTVTEKPEVIDASELTPAVTTYKLVINGKTLKGETTTEAVDAATAEKVFKQYANDNGVDGEWTYDDATKTFTVTEKPEVIDASELTPAVTTYKLVINGKTLKGETTTKAVDAETAEKAFKQYANDNGVDGVWTYDDATKTFTVTEMVTESRALPKTDTYKLILNGKTLKGETTTEAVDAATAEKVFKQYANDNGVDGEWTYDDATKTFTVTEKPEVIDASELTPAVTTYKLVINGKTLKGETTTEAVDAATAEKVFKQYANDNGVDGEWTYDDATKTFTVTEKPEVIDASELTPAVTTYKLVINGKTLKGETTTKAVDAETAEKAFKQYANDNGVDGVWTYDDATKTFTVTEMVTEKGELKLCITGDALVALPEGES
IgG (biotinylated) [11]
  rate of change: 50
[12]
  percent of IgG extracted: > 99%
IgG (biotinylated) [13]
  IC50: 1 nM
IgG (biotinylated) [14]
  R (ratio of 50% inhibition point, two maximum moieties / one maximum moiety): 0.6
  S (ratio of rate of change, two maximum moieties / one maximum moiety): 1.6
